Test results published in US20140335120A1.

Legend:
[1] = target: PSA65-74 peptide presented by H-2Db (PSA65-74 H-2Db tetramer; EL4 cells pulsed with H-2Db peptide) (human) (UniProt P07288); experiment: PSA tetramer staining of splenocytes on day 6 after the boost, flow cytometry
[2] = target: PSA65-74 peptide presented by H-2Db (PSA65-74 H-2Db tetramer; EL4 cells pulsed with H-2Db peptide) (human) (UniProt P07288)

Substance	percent PSA tetramer+CD8+CD62Llow cells [1]	percentage of CD8+CD62Llow IFN-γ secreting cells (intracellular cytokine staining after 5 h stimulation with PSA peptide) [2]
splenocytes (PSA-specific CD8+ T cells / CTLs) of C57BL/6 mice immunized with LmddA-LLO-PSA	23%	
splenocytes (PSA-specific CD8+ T cells / CTLs) of C57BL/6 mice immunized with LmddA-LLO-PSA (cells without a defined receptor)		200 fold
